# Measurements: US10434170B2, “Immunoregulatory vaccine” (S-TARGET THERAPEUTICS GMBH, priority 2012, dated 2019)
# Where no end group is shown, it is not given here. [ ]: non-standard residue; d: D form. pGlu = O=C1CC[C@@H](C(=O)O)N1
# Assays:
# [1] = system: autologous little gastrin (G17RM); assay: Cynomolgus monkeys immunized, serum IgG (MSD multiplex ELISA) against autologous little gastrin; format: in vivo, rhesus and cynomolgus monkey; settings: 6 Cynomolgus monkeys, immunized d0, d14, d28; serum d0-d56
# Source text: Time curve IgG anti G17 induction, after three injections with the vaccine (TYG100_2RM) on d0, d14 and d28. • A significant IgG induction was seen against the ScFV-coil1 and G17RM and G17H. No response was seen against a control peptide of similar molecular weight or when the animals were immunized with G17RM_2 without the presence of warhead.
# 6 Cynomolgus monkeys were immunized with TYG100_2RM and 6 were immunized with G17RM_2-coil on d0, d14 and d28. On d0, d14, d28, 42 and d56 serum was analyzed for the presence of IgG antibodies against autologous little gastrin (G17RM), little gastrin from humans (G17H), an irrelevant control peptide of similar MW as gastrin (control peptide) or against warhead (ScFV-coil1) using the multiplex ELISA system of Meso Scale Discovery (MSD) according to the MSD manual. […] The response against G17RM after three immunizations was 75% of the response against ScFV-coil1. This is remarkable since G17RM is a 100% autologous protein of only ˜1.2 kDa whereas ScFV-coil1 is a 100% allogeneic protein of >30 kDa. The anti G17RM antibodies cross reacted strongly with G17H. There was no response against G17RM when the G17RM_2-coil peptide was used without the warhead.
# [2] = system: G17RM; assay: Balb/c mice immunized with TYG100 vaccine, serum IgG titre against G17RM; format: in vivo, mouse; settings: peptide immunized without the warhead, Example 14
# Protocol: (§1) 6 Balb/c Mice were immunized 3 times on day 0, day 14 and day 35 with TYG100_1RM or G17_1RM (without warhead) containing rhesus monkey G17 (58.4 μg/shot in 0.5 ml). Two weeks after last immunization, serum was taken and analyzed for the presence of IgG antibodies against G17RM, G17H and G17M (=G17 from the mouse)
# as §1, with “TYG100_2RM” for “TYG100_1RM or G17_1RM (without warhead)”, “containing the first 13 immuno acids of” for “containing”, “(66.8” for “(58.4”
# [3] = system: PBMC of Der p1 sensitized rhesus monkeys; assay: Warhead mediated enhanced antigen presentation, PBMC proliferation (Example 7); format: cell-based, rhesus monkeys (macaca mulatta)
# Protocol: […] proliferation (assayed by the incorporation of [^3H]-thymidine) of Rhesus monkey (macaca mulatta) T cells after pre incubation for 30 ‘on ice with respectively warhead and Der p1 or warhead and immunogen 3. After each pre-incubation the cells were washed. (bdl=below detection limit). • Only when the immunogen could interact with the warhead through its coil (immunogen3) T cell proliferation in a dose dependent fashion could be seen. […] As positive control Der p1 is shown to be reactive after overnight incubation (without washing). • Warhead mediated antigen uptake is more efficient than uptake through pinocytosis
# PBMC (100.000/well) of Der p1 sensitized rhesus monkeys (macaca mulatta) were preincubated (30 min on ice) with 1 μg/ml of warhead ScFV and washed 3 times with PBS or preincubated with PBS only and washed three times. Subsequently these cells incubated (30 min on ice) with different concentrations of Immunogen 3 or Der p1 at 3 μg/ml and washed 3 times with PBS after which the cells were culture at 37° C./5% CO2 in the presence of 20 U/ml IL-2 for 48 hours. As a positive control PBMCs (without warhead preincubation) were incubated with 3 μg/ml Der Pb without washing and cultured at 37° C./5% CO2 in the presence of 20 U/ml IL-2. Proliferation was assayed by the incorporation of [^3H]-thymidine (0.5 μCi/well) during the final 18 hrs of a 2-day culture. Cells were harvested for β-scintillation counting (Topcount NXT, Packard, Ramsey, Minn., USA). Results are shown as counts per minute.
# [4] = system: PBMC of Der p1 sensitized normal donors; assay: Stimulation of human PBMC with immunogen 5-12, IL-10 and IFNg ELISA (Example 10); format: cell-based; settings: 24 h, 5, 1 or 0.5 μg/ml vs 3 μg/ml Der p1
# Protocol: PBMCs of healthy human donors were cultured for 24 h in triplicate with Der p1 or immunogen 5. Supernatants were harvested and assayed for IL-10 and […] levels (each indicated as pg/ml; BDL=below detection limit) • Human T cells respond equally well to immunogen 5 as to Der p1, as measured by IL-10 and IFNg induction.
# PBMC (100.000/well) of Der p1 sensitized normal donors were cultured in triplicate with medium, 3 μg/ml Der p1 or 5, 1 or 0.5 μg/ml immunogen 5-12 (Immo5-12) at 37° C./5% CO2 for 24 h. Supernatants were assayed in duplicate for IL-10 and IFNg levels using a commercially-available ELISA kits (eBioscience) in accordance with the manufacturer's instructions.
# [5] = system: ScFV-1-coil; assay: Mice immunized with ScFV-1-coil or warhead, serum IgG1 and IgG2a ELISA against ScFV-1-coil; format: in vivo; settings: s.c. 2× 35 μg d0, d14, on Alum or in PBS, sera day 28
# Protocol: (§2) 24 mice (6/group) were immunized s.c. 2× with 35 μg in 150 μl ScFV-1-coil or with warhead (ScFV-1-coil-M362) either formulated on Alum or diluted in PBS. Immunizations were done on d0, and d14, sera were taken on d0 (before immunization) and d28 and analyzed for IgG1 and IgG2a against ScFV-1-coil (indicated as ScFV) and mAb IV.3 by standard ELISA.
# [6] = system: mAb IV.3; assay: Mice immunized with ScFV-1-coil or warhead, serum IgG1 and IgG2a ELISA against mAb IV.3; format: in vivo, mouse; settings: s.c. 2× 35 μg d0, d14, on Alum or in PBS, sera day 28
# Protocol: as §2
# [7] = system: PBMC of Der p1 sensitized rhesus monkeys; assay: Proliferation ([3H]-thymidine) of PBMC of Der p1 sensitized rhesus monkeys (Example 6); format: cell-based, rhesus monkeys (macaca mulatta); settings: 3 and 5 μg/ml immunogen 3 vs Der p1, 2-day culture, 20 U/ml IL-2
# Protocol: (§3) PBMCs from Der p1 sensitized rhesus monkeys (macaca mulatta) were cultured in triplicate with Der p1 or immunogen 3. Proliferation was assayed by the incorporation of [^3H]-thymidine. Results are shown as counts per minute.
# (§4) PBMC (100.000/well) of Der p1 sensitized rhesus monkeys (macaca mulatta) were cultured in triplicate with medium, 3 Der p1 or 3 and 5 μg/ml immunogen 3 at 37° C./5% CO2. in the presence of 20 U/ml IL-2. Proliferation was assayed by the incorporation of [^3H]-thymidine (0.5 μCi/well) during the final 18 hrs of a 2-day culture. Cells were harvested for β-scintillation counting (Topcount NXT, Packard, Ramsey, Minn., USA). Results are shown as counts per minute. In addition from parallel cultures, supernatants were assayed in duplicate for IL-10 and GM-CSF levels using a commercially-available ELISA kit (U-Cytech, Utrecht, The Netherlands) in accordance with the manufacturer's instructions.
# [8] = system: PBMC of Der p1 sensitized rhesus monkeys; assay: IL-10 and GM-CSF ELISA in supernatants of PBMC of Der p1 sensitized rhesus monkeys (Example 6); format: cell-based, rhesus monkeys (macaca mulatta); settings: 3 and 5 μg/ml immunogen 3 vs Der p1, parallel cultures
# Protocol: as §3, §4
# [9] = PBMC preincubated with 1 μg/ml warhead ScFV, washed, incubated 30 min on ice with antigen, cultured 48 hours
molecule,measurement,setting,value
"G17RM_2-coil: SEQ ID 103: two rhesus monkey gastrin peptides of SEQ ID 99, branched linker and pepK coil (EGPWMEEEEAAYGGGK(EGPWMEEEEAAYGGG)GGSGGKVSALKEKVSALKEKVSALKEKVSALKEKVSALKE)",IgG response to G17RM,[1],no response
[pGlu]GPWMEEEEAAYGGGSGGKVSALKEKVSALKEKVSALKEKVSALKEKVSALKE [G17-peptide],response against G17,[2],no response
Der p1: house dust mite allergen used as comparator antigen (protein) TNACSINGNAPAEIDLRQMRTVTPIRMQGGCGSCWAFSGVAATESAYLAYRNQSLDLAEQELVDCASQHGCHGDTIPRGIEYIQHNGVVQESYYRYVAREQSCRRPNAQRFGISNYCQIYPPNVNKIREALAQTHSAIAVIIGIKDLDAFRHYDGRTIIQRDNGYQPNYHAVNIVGYSNAQGVDYWIVRNSWDTNWGDNGYGYFAANIDLMMIEEYPYVVIL,proliferation of PBMC,[3]; [9],did not lead to proliferation
"immunogen 5: SEQ ID 30/75: ~29 T cell epitopes of ten Der p allergens with His tag, linkers and pepK coil (protein, Immunogen-coil) chain 1: GVLACAIATHAKIREQERLVKLETVKKSLEQEVRTLHVRIEEVEANALAGGDLRQMRTVTPIRMQGGCGSCWEAHEQQIRIMTTKLKEAEARQQYDIKYTWNVPKIAVNIVGYSNAQGVDYWIVRNSWDTNWYHNPHFIGNRSVITHLMEDLKGELDMRNIQVRGLKQMKRVGDANVKSEDDAFRHYDGRTIIQRDNGYQPNYLDEYWILTAAHCVDGQTVSKLIRSKVLGEKISYYRYVAREQSCRRPNAQRFGISNYCVVVTVKVMGDDELHTYFNVNYTMHYYLNNGATRDILDEYWILTAAHCVAGQTASKLSIRYNSLKHSLFKYRPFKVNELNLEGEFGRELQHKFRLMRNSQMEVEEGGGSHHHHHHGGGSCGGKVSALKEKVSALKEKVSALKEKVSALKEKVSALKE chain 2: GVLACAIATHAKIREQERLVKLETVKKSLEQEVRTLHVRIEEVEANALAGGDLRQMRTVTPIRMQGGCGSCWEAHEQQIRIMTTKLKEAEARQQYDIKYTWNVPKIAVNIVGYSNAQGVDYWIVRNSWDTNWYHNPHFIGNRSVITHLMEDLKGELDMRNIQVRGLKQMKRVGDANVKSEDDAFRHYDGRTIIQRDNGYQPNYLDEYWILTAAHCVDGQTVSKLIRSKVLGEKISYYRYVAREQSCRRPNAQRFGISNYCVVVTVKVMGDDELHTYFNVNYTMHYYLNNGATRDILDEYWILTAAHCVAGQTASKLSIRYNSLKHSLFKYRPFKVNELNLEGEFGRELQHKFRLMRNSQMEVEEGGGSHHHHHHGGGSCGGKVSALKEKVSALKEKVSALKEKVSALKEKVSALKE","IFNg induction, response compared with Der p1",[4],equally well
same,"IL-10 induction, response compared with Der p1",[4],equally well
warhead (conjugate) scFv: EVQLQQSGPELKKPGETVKISCKASGYTFTNYGMNWVKQAPGKGLKWMGWLNTYTGESIYPDDFKGRFAFSSETSASTAYLQINNLKNEDMATYFCARGDYGYDDPLDYWGQGTSVTVSSGGGGSGGGGSGGGGSDIVMTQAAPSVPVTPGESVSISCRSSKSLLHTNGNTYLHWFLQRPGQSPQLLIYRMSVLASGVPDRFSGSGSGTAFTLSISRVEAEDVGVFYCMQHLEYPLTFGAGTKLELKGSISAWSHPQFEKGPEVSALEKEVSALEKEVSALEKEVSALEKEVSALEK,IgG1 response to ScFV-1-coil,[5],strong
same,IgG2a response to ScFV-1-coil,[5],strong
same,IgG1 response to mAb IV.3,[6],strong
same,IgG2a response to mAb IV.3,[6],strong
"ScFV-1-coil: SEQ ID 70: ScFV derived from anti-CD32a mAb IV.3 with StrepTag II and pepE coil (protein, ScFV-coil) scFv: EVQLQQSGPELKKPGETVKISCKASGYTFTNYGMNWVKQAPGKGLKWMGWLNTYTGESIYPDDFKGRFAFSSETSASTAYLQINNLKNEDMATYFCARGDYGYDDPLDYWGQGTSVTVSSGGGGSGGGGSGGGGSDIVMTQAAPSVPVTPGESVSISCRSSKSLLHTNGNTYLHWFLQRPGQSPQLLIYRMSVLASGVPDRFSGSGSGTAFTLSISRVEAEDVGVFYCMQHLEYPLTFGAGTKLELKGSISAWSHPQFEKGPEVSALEKEVSALEKEVSALEKEVSALEKEVSALEK",IgG1 response to ScFV-1-coil,[5],only in the presence of Alum
same,IgG2a response to ScFV-1-coil,[5],no IgG2a response
"immunogen 3: SEQ ID 23/74: Der P1 and Der P2 T cell epitopes with His tag, linker and pepK coil (protein, Immunogen-coil) chain 1: HHHHHHYYRYVAREQSCRRPNAQRFGISNYCQIYPPNVNKIREALAQTHSAIAVDLRQMRTVTPIRMQGGCGSCWAFSGVAATESAYLQQYDIKYTWNVPKIAPKSENVVVTVKVMGDDGVLACAIATHAKIRDDAFRHYDGRTIIQRDNGYQPNYHAVNIVGYSNAQGVDYWIVRNSWDTNWHEIKKVLVPGCHGSEPCIIHRGKPFGGGSGGGSCGGKVSALKEKVSALKEKVSALKEKVSALKEKVSALKE chain 2: HHHHHHYYRYVAREQSCRRPNAQRFGISNYCQIYPPNVNKIREALAQTHSAIAVDLRQMRTVTPIRMQGGCGSCWAFSGVAATESAYLQQYDIKYTWNVPKIAPKSENVVVTVKVMGDDGVLACAIATHAKIRDDAFRHYDGRTIIQRDNGYQPNYHAVNIVGYSNAQGVDYWIVRNSWDTNWHEIKKVLVPGCHGSEPCIIHRGKPFGGGSGGGSGGKVSALKEKVSALKEKVSALKEKVSALKEKVSALKE",proliferation of PBMC,[3]; [9],dose dependent stimulation
same,stimulation relative to positive control,"[3]; after warhead ScFV preincubation, positive control = PBMC cultured 48 h with 3 μg/ml Der p1 without washing",even higher than the positive control
same,proliferation of PBMC,[3]; preincubated immunogen in the absence of warhead (data not shown),did not lead to proliferation
same,"proliferation, response compared with Der p1",[7],non-significant difference
same,"cytokine production (IL-10 and GM-CSF), response compared with Der p1",[8],non-significant difference
